Reference: patent US20070282017A1 (Harvard, published 2007)

Experiments:
[1] = target: Endogenous Ser65-phosphorylated BIMEL in cerebellar granule neurons (UniProt O88498)
Recombinant GST-Pin1 = target: T1, Recombinant GST-Pin1 (UniProt Q13526 1-163); assay: GST-Pin1 pulldown from 293T lysates, anti-FLAG immunoblot
T1 construct: Bait in GST pulldown assays; not shown: glutathione S-transferase (GST) fusion partner
T1 sequence (Q13526 whole entry, the tested form may be a part): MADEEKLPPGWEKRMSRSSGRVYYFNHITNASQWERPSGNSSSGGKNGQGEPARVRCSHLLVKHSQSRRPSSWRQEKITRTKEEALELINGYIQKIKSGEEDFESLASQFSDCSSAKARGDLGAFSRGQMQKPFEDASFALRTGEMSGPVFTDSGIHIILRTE

Endogenous Ser65-phosphorylated BIMEL in cerebellar granule neurons, sequence (O88498 whole entry): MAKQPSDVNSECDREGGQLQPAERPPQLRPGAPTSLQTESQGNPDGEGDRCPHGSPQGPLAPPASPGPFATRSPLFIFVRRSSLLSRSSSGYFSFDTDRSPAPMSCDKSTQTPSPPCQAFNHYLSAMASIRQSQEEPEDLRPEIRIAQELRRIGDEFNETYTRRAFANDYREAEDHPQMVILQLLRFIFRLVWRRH

For “Endogenous Pin1 in cerebellar granule neurons”, the “BIMEL protein levels in granule neurons after Pin1 RNAi lentivirus (immunoblot)” value [1] was 46±1.5% reduction.

B1: FLAG-tagged JIP3 fragment 144-241 (other, UniProt Q9ESN9 144-241, looked up)
chain: ADQISRLEERESEMKKEYNALHQRHTEMIQTYVEHIERSKMQQVGGSGQTESSLPGRSRKERPTSLNVFPLADGMVRAQMGGKLVPAGDHWHLSDLGQ
notes: Expressed in 293T cells; not shown: 3xFLAG tag of the 3xFLAG CMV-7.1 vector
B1: no binding (Recombinant GST-Pin1).
